These results are taken from FireProtDB (doi:10.1111/j.1432-1033.1991.tb16033.x).

To fix the notation:
B1: Ribonuclease HI, P0A7Y4 (parent)
chain: MLKQVEIFTDGSCLGNPGPGGYGAILRYRGREKTFSAGYTRTTNNRMELMAAIVALEALKEHCEVILSTDSQYVRQGITQWIHNWKKRGWKTADKKPVKNVDLWQRLDAALGQHQIKWEWVKGHAGHPENERCDELARAAAMNPTLEDTGYQVEV

The variants in this data set derive from B1. Particulars: Escherichia coli (strain K12); pH 5.5; 25 °C; GdnHCl; Fluorescence; Sodium acetate 20 mM; NaCl 0.1 M; reversible: yes; structure 2RN2; whole UniProt chain shown.

Consider H62A, for which the “ddG of mutation (higher = less stable)” value was -0.38 kcal/mol, the denaturant m value was found to be 5.19 kcal/mol/M, the “denaturant midpoint (higher = more stable)” value (shortened to “denaturant midpoint”) worked out at 1.86 M and the unfolding free energy was 9.64 kcal/mol.

For the variant H114A, the “ddG of mutation (higher = less stable)” value is 2.63 kcal/mol, the denaturant m value was 4.23 kcal/mol/M, the “denaturant midpoint” value amounted to 1.57 M and the unfolding free energy worked out at 6.63 kcal/mol.

As to H124A, the “ddG of mutation (higher = less stable)” value was -0.48 kcal/mol, the denaturant m value was determined as 5.36 kcal/mol/M, the “denaturant midpoint” value was found to be 1.82 M and the unfolding free energy is 9.74 kcal/mol.

In the case of H127A, the “ddG of mutation (higher = less stable)” value stood at 0.58 kcal/mol, the denaturant m value amounted to 4.98 kcal/mol/M, the “denaturant midpoint” value was determined as 1.74 M and the unfolding free energy turned out to be 8.68 kcal/mol.
